The results in this text go back to patent US20250027068.

First the molecules themselves.
B1: PRT-501 (protein)
chain: MVTSVWTKGVTPPADFTQGEDVFHAPYVANQGWYDITKTFNGKDDLLCGAATAGNMLHWWFDQNKEYIEAYLKKHPEKQKIMFGDQELLDVRKAINTKGSQKNSELFNYFRDKAFPNLSARRLGVMPDLVLDMFINGYYLNVTKTQTTDVNRTYQEKDKRGGIFDAVFTRGDQSKLLTSRHDLKNKGLKEISDLIKQELTEGKALGLSHTYANVRINHVINLWGADFDSDGNLKAIYVTDSDSNASIGMKKYFVGVNSAGKVAISAKEIKEDNIGAQVLGLFTLSTGQDIWNQTNLEHHHHHH
B2: PRT-498 (protein)
chain: MVTSVWTKGVTPPTDFRKIVDGNIAYYHAPYKAGQGWYDITKAFDGGDDLLCGAATAGNMLHWWFDQNKEYIEAYLKKHPEKQKIMFGDQELLDVRKAINTKGSQKNSELFNYFRDKAFPNLSARRLGVMPDLVLDMFINGYYLNVTKTQTTDVNRTYQEKDKRGGIFDAVFTRGDQSKLLTSRHDLKNKGLKEISDLIKQELTEGKALGLSHTYANVRINHVINLWGADFDSDGNLKAIYVTDSDSNASIGMKKYFVGVNSAGKVAISAKEIKEDNIGAQVLGLFTLSTGQDIWNQTNLEHHHHHH
B3: PRT-688 (protein)
chain: MQITSVWTKGVTPLTMDDFTINNEDVIHAPYVANQGWYDITKTFNGKDNLLCGAATAGNMLHWWFDQNKEEIERYLKKHPEKQKIIFNNQELFDLKEAINTKDSQTDSKLFNYFRDKAFPNLSARQLGVMPDLVLDMFINGYYLNVFKTQSTDVNRPYDTKDKRGGIFDHVFTRGDQSTLLTARHDLKNKTLKEISDIIKQELTEGKALALSHTYANVSISHVINLWGADFNAEGNLEAIYVTDSDANASIGMKKYYVGVNSHGKVAISAKKIEGENIGAQVLGLFTLSSGKDIWQKLSLEHHHHHH
B4: PRT-511 (protein)
chain: MITSVWTKGVTPPAKFRKIVDGNIAYYHAPYVANQGWYDITKTFNGKDDLLCGAATAGNMLHWWFDQNKEEIEAYLKKHPEKQKIMFGDQELLDVRKVINTKDSQTNSALFNYFKDKAFPNLSARRLGVMPDLVLDMFINGYYLNVYKTQTTDVNRTYQTKDRRGGIFDAVFTRGDQSKLLTERHDLKNKTLKEISDLIKQELTEGKALGLSHTYANVRINHVINLWGADFDSNGNLEAIYVTDSDSNASIGMKKYFVGVNSAGKVAISAKEIKEDNIGAQVLGLFTLSTGQDIWNQTNLEHHHHHH
B5: PRT-517 (protein)
chain: MITSVWTKGVTPPTDFIKGEDVFHAPYKAGQGWYDITKAFDGGDDLLCGAATAGNMLHWWFDQNKEEIEAYLKKHPEKQKIMFGDQELLDVRKVINTKDSQTNSALFNYFKDKAFPNLSARRLGVMPDLVLDMFINGYYLNVYKTQTTDVNRQEQTKDRRGGIFDAVFGRGDQTKLLTERHDLKNKTLKEISDLIKQELTEGKALGLSHTYANVRINHVINLWGADFDSNGNLEAIYVTDSDSNASIGMKKYFVGVNSAGKVAISAKEIKEDNIGAQVLGLFTLSTGQKIWNKTNLEHHHHHH

This data set has as its target pooled human IgG (human IgG1,2,3 and 4).
B1: the Enzyme Activity Endpoint Assay (purified): Fab′2 worked out at 0 ng/µL, the Enzyme Activity Endpoint Assay (purified): Fc turned out to be 0 ng/µL, the Enzyme Activity Endpoint Assay (purified): IgG turned out to be 1950 ng/µL and the Enzyme Activity Endpoint Assay (purified): scIgG was 0 ng/µL.

For the protein B2, the Enzyme Activity Endpoint Assay (purified): Fab′2 was found to be 488 ng/µL, the Enzyme Activity Endpoint Assay (purified): Fc was 318 ng/µL, the Enzyme Activity Endpoint Assay (purified): IgG worked out at 325 ng/µL and the Enzyme Activity Endpoint Assay (purified): scIgG was determined as 124 ng/µL.

Protein B3 registered an Enzyme Activity Endpoint Assay (purified): Fab′2 of 0 ng/µL, an Enzyme Activity Endpoint Assay (purified): Fc of 0 ng/µL, an Enzyme Activity Endpoint Assay (purified): IgG of 1950 ng/µL and an Enzyme Activity Endpoint Assay (purified): scIgG of 0 ng/µL.

Consider B4, for which the Enzyme Activity Endpoint Assay (purified): Fab′2 is 935 ng/µL, the Enzyme Activity Endpoint Assay (purified): Fc came to 312 ng/µL, the Enzyme Activity Endpoint Assay (purified): IgG was 62 ng/µL and the Enzyme Activity Endpoint Assay (purified): scIgG was determined as 0 ng/µL.

As for B5, the Enzyme Activity Endpoint Assay (purified): Fab′2 was determined as 0 ng/µL, the Enzyme Activity Endpoint Assay (purified): Fc stood at 0 ng/µL and the Enzyme Activity Endpoint Assay (purified): scIgG was 22 ng/µL.
